Measured values: the supplement of paper PMC9170038

System: MS2 coat protein
Assay: apparent KD of MS2 coat protein; designed switch direction (-1 OFF switch, 1 ON switch): 1; higher = weaker reporter binding
Method in brief: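 The buffer was Tris-HCl pH 7.5 with KCl, MgCl2, BSA, DTT, tRNA and Tween-20. In it, SNAP-549-labelled MS2 coat protein was titrated in doubling steps from 0.7 or 1.5 nM to 3 µM over chip-bound RNA switches transcribed by stalled E. coli RNA polymerase on Illumina chips. Apparent KD is the per-design median over clusters of curve fits to normalised fluorescence.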

[1] = input ligand: microRNA oligo, concentration not stated
[2] = Eterna round: R95, input ligand: FMN 200 uM
[3] = Eterna round: R95, input ligand: microRNA oligo, concentration not stated
[4] = Eterna round: R95, input ligand: none

Sequence | apparent KD of MS2 coat protein (input ligand: FMN 200 uM) [nM] | apparent KD of MS2 coat protein [1] [nM] | apparent KD of MS2 coat protein (input ligand: none) [nM] | apparent KD of MS2 coat protein [2] [nM] | apparent KD of MS2 coat protein [3] [nM] | apparent KD of MS2 coat protein [4] [nM]
GCUACCAUUGAAGCCUACAUGAGGAUCACCCAUGUAUGUAGGCAGGAUAUCGAUUGCAAAGCGAUCGAGAAGGGCUUAGGUAGC [Mat - Same State NG 3 - JL Mod - D90] (Eterna round: R96, puzzle: Same State NG 3) | 30.8 | 52.2 | 79.1 | – | – | –
AUAAGUCCGAUGCUCGUCUCUCCGUACAAACAUGAGGAUCACCCAUGUGAUCGGGAAGUAGCCCGAUCAGUAUGGCC [Erardius] (puzzle: Sensor for hsa-mir-208a) | – | – | – | 45.5 | 22.6 | 48.3
AACAAUCUUUCUGAGGAUAUCAUGAAAUAAACAUGAGGAUCACCCAUGUGCAGGAAAACUGCAUAUGAGAAGGCAGAUAGAUUGA [salish99_ss2_r3_024] (puzzle: Same State 2) | – | – | – | 43.3 | 414 | 1220
AAAAGACAUGAGGAUCACCCAUGUCAAGACGUGGGAGGAUAUGCAUGGAAAACAUGCUGUGCAGAAGGCCCGUGUC [SS1 - 20] (Eterna round: R96, puzzle: Same State 1) | 16.2 | 16.6 | 24 | – | – | –
GCUAGGAUUAAAGCCAACAUGAGGAUCACCCAUGUAUGUUGGUAGGAUAUCGUUUGCAAAGCAAACGAGAAGGGCUAACCUAGC [Mat - Same State NG 3 - JL Mod - D67] (Eterna round: R96, puzzle: Same State NG 3) | 88.3 | 73 | 92.6 | – | – | –
UCUUGGUUUUUGCUCGUUUUUUGUGUUGAACAUGAGGAUCACCCAUGUAUUGUACGGUCCGGUUUAAUAAUGGUCCG [JMF 12] (puzzle: Sensor for hsa-mir-208a) | – | – | – | 25 | 14.7 | 26.3
UGAAUGGUGAUAGGAUAUACAUGAGGAAUCCUCGUAGAAGGAUCACGACAUGAGGAUCACCCAUGUAGCCGUCCGUAGACGGCC [salish99_SSNG1_r04_002] (Eterna round: R96, puzzle: Same State NG 1) | – | 89.6 | – | – | – | –
CAAAAUUAGUAGGAUAGGUACCCAGGAUGACAUGAGGAUCACCCAUGUAAGAGCUUUUUGCUCGUCAUUAACAGUUG [JR_SHM208a_Sub016] (puzzle: Sensor for hsa-mir-208a) | – | – | – | 55.7 | 55.7 | 68
AUUUUUAAUGCAGGAUAUGAUUAACAUGAGGAUCACCCAUGUGGUGUUGUGAGUAAGGAGAGUGAUCAGAAGGGCAUUUUUUUC [JMF's solution 91] (Eterna round: R96, puzzle: Same State NG 2) | 888 | 274 | 502 | – | – | –
UAGAGAGGAAGCGAGGAUAUCGUGGGAGGGACAUGAGGAUCACCCAUGUAUGAUGUUGAGAGGAACGAGAAGGCGCAGGAAAGUA [JR_SS2_Sub077] (puzzle: Same State 2) | – | – | – | 151 | 137 | 349
UUUUUGUUCCGAGGAUAUCCUUUUUUCUUACAUGAGGAUCACCCAUGUAAAGGGAUUGAGUUGUAGGAGAAGGCGGUUUUGUUU [JR_SSNG2_Sub061] (Eterna round: R96, puzzle: Same State NG 2) | 16.4 | 26.1 | 26.2 | – | – | –
AUGCCAAAUCAAGGAUAUGGAGCCUUAUUGGCUCCAGAAGGUGGGACAUGAGGAUCACCCAUGUGGCAGUGGUCUAAUGACCAC [Fiskers NG1ss - 31] (Eterna round: R96, puzzle: Same State NG 1) | 59.7 | 146 | 200 | – | – | –
AGAUGUUAAUCAGGAUAUGGGCACAUGAGGAUCACCCAUGUAACGUAGAUACGAUGUGGUCAAGUCUAGAAGGGAUAGCUAACA [SameState NG2 #78] (Eterna round: R96, puzzle: Same State NG 2) | 125 | 60.7 | 65.9 | – | – | –
AGUCCAGCCUGAGCUGGACAAAAGCAUGUACAUGAGGAUCACCCAUGUCAUGUACAAGCUUUUUGCUCGUCUAAAAU [Mat - hsa-mir-208a - Mod of JL - D6] (puzzle: Sensor for hsa-mir-208a) | – | – | – | 430 | 16.3 | 675
UGUCCAGCCUGUGCUGGUCUUUAGCAUGUACAUGAGGAUCACCCAUGUCGUGUACAUGCUUUUUGCUCGUCUUUAAA [Photon Torp-05] (puzzle: Sensor for hsa-mir-208a) | – | – | – | 68.9 | 25.9 | 92.2
UGGCUCAGAGCAGGAUAUAUGUGAUCACAUGAGGAUCACCCAUGUCUCGAGCUUCGGCUCGAGACAUAGAAGGGCUCUGAGCCU [SSNG2/3-B3] (Eterna round: R96, puzzle: Same State NG 2) | 110 | 52.7 | 137 | – | – | –

Sequence | apparent KD of MS2 coat protein (input ligand: FMN 200 uM) [nM] | apparent KD of MS2 coat protein [1] [nM] | apparent KD of MS2 coat protein (input ligand: none) [nM] | apparent KD of MS2 coat protein [2] [nM] | apparent KD of MS2 coat protein [3] [nM] | apparent KD of MS2 coat protein [4] [nM]
AAUAAACAUGAGGAUCACCCAUGUAAUAUAAAUGGAGGAUAUGCAAUUAUUAAUUAUUAAGUAGAAGGUCGAAUAA [Lollin - Epsilon 1] (puzzle: Same State 1) | – | – | – | 62.1 | 55.7 | 91.2
GGUAGGUUACUACCAAACAUGAGGAUCACCCAUGUUAAUGGGAAGGAUAUGGUACCUAUUUGGUACCAGAAGGUCCAAUUAAUU [JL Fiskers NG3ss - 2 mod 4] (Eterna round: R96, puzzle: Same State NG 3) | 70.4 | 520 | 493 | – | – | –
CGUCCGGCCUGAGCUGGACGGAUGCAUGUACAUGAGGAUCACCCAUGUUCAUGUGCAGGCUUUUUGCUCGUCUUGUG [salish99_mir208a_modof_jandersonlee_002] (puzzle: Sensor for hsa-mir-208a) | – | – | – | 20.1 | 9.62 | 18.1
GAGGAACAGGCCAACAUGAGGAUCACCCAUGUCCUCGCACUUCAGGAUAUCUGGAGGAAGAAGAAAGAGAAGGGAAGGUGAAGC [AK SSNG3-V2-34.2] (Eterna round: R96, puzzle: Same State NG 3) | 202 | 30.1 | 19.3 | – | – | –
UAAUUAAGUCAAGGAUAUCACGUCGAAUAGACGUGAGAAGGUGACCAAUACAUGAGGAUCACCCAUGUAAUACAUGAAUAAUUA [SSNG1/12-B1] (Eterna round: R96, puzzle: Same State NG 1) | 27.7 | 35.8 | 45.9 | – | – | –
UAAACUUCUUUUAGUGUAAUGCAUGUGAUACAUGAGGAUCACCCAUGUUUUGGUUCGUUUUAUUUUGUUCGUCUUAA [JR_SHM208A_Sub078] (puzzle: Sensor for hsa-mir-208a) | – | – | – | 59.3 | 43.9 | 81.8
GUGGUCAGACAUGAGGAUCACCCAUGUGGAAUAAAUAACGGACAGGAUAUUCAAUAUAGGAUAUAGAAGAAGGGUUGAUUGGUG (Eterna round: R96, puzzle: Same State NG 3) | 143 | 84.5 | 90.9 | – | – | –
UGUUGUAUUACAGGAUAUCUAUUAGUUUUAUUUAGAGAAGGGUAUUCACAUGAGGAUCACCCAUGUAUAUACGAGGAAGUUGUG [JMF's solution 14] (Eterna round: R96, puzzle: Same State NG 1) | – | 42.2 | – | – | – | –
CGUCCAGCCUGAGCUGGACAAAAGCAUGUACAUGAGGAUCACCCAUGUUCAUGUACAAGCUUUUUGCUCGUCUUAGA [salish99_208a_r3_072] (puzzle: Sensor for hsa-mir-208a) | – | – | – | 477 | 15.3 | 432
GGUGCAAUAAACGCCUACAUGAGGAUCACCCAUGUAUGUAGGCAGGAUAUCGUAUGCAAAGCAUACGAGAAGGGCUAUAGUACC [Mat - Same State NG 3 - JL Mod - D45] (Eterna round: R96, puzzle: Same State NG 3) | 57.1 | 124 | 146 | – | – | –
GGUCGAAACCACAUGAGGAUCACCCAUGUUCCGGAAACGGCGCAGGAUAUCUGUCCGAAAAGGUCAGAGAAGGGUGAAACGACC [Fiskers NG3ss - 79] (Eterna round: R96, puzzle: Same State NG 3) | 546 | 699 | 944 | – | – | –
GGAGGACAUGAGGAUCACCCAUGUAGAUGGGCGCUAGGAUAUGCGAGAGGGUAGAGAGAAGCAGAAGGAGUGGAAA [JR_SS1_Sub040] (puzzle: Same State 1) | – | – | – | 149 | 197 | 382
AUUUUUAAUGCAGGAUAUGAUUAACAUGAGGAUCACCCAUGUGGUGUUGUGAGUAAGGAGAGUGAUCAGAAGGGCAUCUUUUCA [SS-NG2-LRO02] (Eterna round: R96, puzzle: Same State NG 2) | 679 | 216 | 372 | – | – | –
UUGAAGAAUAUAGGAUAUUGAAUACAUAUGUUUAACAUGAGGAUCACCCAUGUGGGUUGCGGUAUCGAGAAGGAUAAAUAAUAG [Mat - Same State NG 2 - JL mod - D13] (Eterna round: R96, puzzle: Same State NG 2) | 196 | 122 | 190 | – | – | –
GAGGGAUGAGCGUAGGAUAUAGGAGAAGUGACAUGAGGAUCACCCAUGUAGGAGGAGGGAUGAGACUAGAAGGACGAGGUAGGAG [JR_SS2_Sub061] (puzzle: Same State 2) | – | – | – | 37.5 | 54.7 | 67.9
